The MegaScale stability set (Tsuboyama et al. 2023)

B1: EHEE_rd2_0196 (parent)
chain: TETRTFDSEEEAKKAQKEAEKQGRTVTITRRDDRWEVRFD

Variants of: B1
Experiment: folding stability dG (cDNA display proteolysis); higher = more stable
Settings: PBS, room temperature

Variant	folding stability dG
TETRTFDSEEEANKAQKEAEKQGRTVTITRRDDRWEVRFD	2.64 kcal/mol
TETRTFDSEEEAPKAQKEAEKQGRTVTITRRDDRWEVRFD	0.105 kcal/mol
TETRTFDSEEEAQKAQKEAEKQGRTVTITRRDDRWEVRFD	2.97 kcal/mol
TETRTFDSEEEARKAQKEAEKQGRTVTITRRDDRWEVRFD	3.13 kcal/mol
TETRTFDSEEEASKAQKEAEKQGRTVTITRRDDRWEVRFD	2.45 kcal/mol
TETRTFDSEEEATKAQKEAEKQGRTVTITRRDDRWEVRFD	2.75 kcal/mol
TETRTFDSEEEAVKAQKEAEKQGRTVTITRRDDRWEVRFD	3.2 kcal/mol
TETRTFDSEEEAWKAQKEAEKQGRTVTITRRDDRWEVRFD	2.95 kcal/mol
TETRTFDSEEEAYKAQKEAEKQGRTVTITRRDDRWEVRFD	3.29 kcal/mol
TETRTFDSEEEAKAAQKEAEKQGRTVTITRRDDRWEVRFD	3.29 kcal/mol
TETRTFDSEEEAKCAQKEAEKQGRTVTITRRDDRWEVRFD	3.46 kcal/mol
TETRTFDSEEEAKDAQKEAEKQGRTVTITRRDDRWEVRFD	2.9 kcal/mol
TETRTFDSEEEAKEAQKEAEKQGRTVTITRRDDRWEVRFD	3.15 kcal/mol
TETRTFDSEEEAKFAQKEAEKQGRTVTITRRDDRWEVRFD	3.02 kcal/mol
TETRTFDSEEEAKGAQKEAEKQGRTVTITRRDDRWEVRFD	2.5 kcal/mol
TETRTFDSEEEAKHAQKEAEKQGRTVTITRRDDRWEVRFD	3.05 kcal/mol
TETRTFDSEEEAKIAQKEAEKQGRTVTITRRDDRWEVRFD	3.07 kcal/mol
TETRTFDSEEEAKLAQKEAEKQGRTVTITRRDDRWEVRFD	3.23 kcal/mol
TETRTFDSEEEAKMAQKEAEKQGRTVTITRRDDRWEVRFD	3.23 kcal/mol
TETRTFDSEEEAKNAQKEAEKQGRTVTITRRDDRWEVRFD	3.05 kcal/mol
TETRTFDSEEEAKPAQKEAEKQGRTVTITRRDDRWEVRFD	0.356 kcal/mol
TETRTFDSEEEAKQAQKEAEKQGRTVTITRRDDRWEVRFD	3.23 kcal/mol
TETRTFDSEEEAKRAQKEAEKQGRTVTITRRDDRWEVRFD	3.02 kcal/mol
TETRTFDSEEEAKSAQKEAEKQGRTVTITRRDDRWEVRFD	2.89 kcal/mol
TETRTFDSEEEAKTAQKEAEKQGRTVTITRRDDRWEVRFD	2.9 kcal/mol

Variant	folding stability dG
TETRTFDSEEEAKVAQKEAEKQGRTVTITRRDDRWEVRFD	2.94 kcal/mol
TETRTFDSEEEAKWAQKEAEKQGRTVTITRRDDRWEVRFD	3.02 kcal/mol
TETRTFDSEEEAKYAQKEAEKQGRTVTITRRDDRWEVRFD	2.95 kcal/mol
TETRTFDSEEEAKKDQKEAEKQGRTVTITRRDDRWEVRFD	1.13 kcal/mol
TETRTFDSEEEAKKEQKEAEKQGRTVTITRRDDRWEVRFD	2.24 kcal/mol
TETRTFDSEEEAKKFQKEAEKQGRTVTITRRDDRWEVRFD	4.24 kcal/mol
TETRTFDSEEEAKKGQKEAEKQGRTVTITRRDDRWEVRFD	1.18 kcal/mol
TETRTFDSEEEAKKHQKEAEKQGRTVTITRRDDRWEVRFD	2.69 kcal/mol
TETRTFDSEEEAKKIQKEAEKQGRTVTITRRDDRWEVRFD	2.69 kcal/mol
TETRTFDSEEEAKKKQKEAEKQGRTVTITRRDDRWEVRFD	1.45 kcal/mol
TETRTFDSEEEAKKLQKEAEKQGRTVTITRRDDRWEVRFD	2.76 kcal/mol
TETRTFDSEEEAKKMQKEAEKQGRTVTITRRDDRWEVRFD	2.79 kcal/mol
TETRTFDSEEEAKKNQKEAEKQGRTVTITRRDDRWEVRFD	1.58 kcal/mol
TETRTFDSEEEAKKPQKEAEKQGRTVTITRRDDRWEVRFD	0.28 kcal/mol
TETRTFDSEEEAKKQQKEAEKQGRTVTITRRDDRWEVRFD	2.08 kcal/mol
TETRTFDSEEEAKKRQKEAEKQGRTVTITRRDDRWEVRFD	1.46 kcal/mol
TETRTFDSEEEAKKSQKEAEKQGRTVTITRRDDRWEVRFD	2.18 kcal/mol
TETRTFDSEEEAKKTQKEAEKQGRTVTITRRDDRWEVRFD	2.04 kcal/mol
TETRTFDSEEEAKKVQKEAEKQGRTVTITRRDDRWEVRFD	2.91 kcal/mol
TETRTFDSEEEAKKWQKEAEKQGRTVTITRRDDRWEVRFD	3.37 kcal/mol
TETRTFDSEEEAKKYQKEAEKQGRTVTITRRDDRWEVRFD	3.95 kcal/mol
TETRTFDSEEEAKKAAKEAEKQGRTVTITRRDDRWEVRFD	3.91 kcal/mol
TETRTFDSEEEAKKACKEAEKQGRTVTITRRDDRWEVRFD	2.99 kcal/mol
TETRTFDSEEEAKKADKEAEKQGRTVTITRRDDRWEVRFD	0.725 kcal/mol
TETRTFDSEEEAKKAEKEAEKQGRTVTITRRDDRWEVRFD	2.45 kcal/mol

Variant	folding stability dG
TETRTFDSEEEAKKAFKEAEKQGRTVTITRRDDRWEVRFD	2.97 kcal/mol
TETRTFDSEEEAKKAGKEAEKQGRTVTITRRDDRWEVRFD	2.99 kcal/mol
TETRTFDSEEEAKKAHKEAEKQGRTVTITRRDDRWEVRFD	2.07 kcal/mol
TETRTFDSEEEAKKAIKEAEKQGRTVTITRRDDRWEVRFD	2.97 kcal/mol
TETRTFDSEEEAKKAKKEAEKQGRTVTITRRDDRWEVRFD	3.04 kcal/mol
TETRTFDSEEEAKKALKEAEKQGRTVTITRRDDRWEVRFD	2.89 kcal/mol
TETRTFDSEEEAKKAMKEAEKQGRTVTITRRDDRWEVRFD	3.32 kcal/mol
TETRTFDSEEEAKKANKEAEKQGRTVTITRRDDRWEVRFD	0.943 kcal/mol
TETRTFDSEEEAKKAPKEAEKQGRTVTITRRDDRWEVRFD	0.25 kcal/mol
TETRTFDSEEEAKKARKEAEKQGRTVTITRRDDRWEVRFD	2.63 kcal/mol
TETRTFDSEEEAKKASKEAEKQGRTVTITRRDDRWEVRFD	2.69 kcal/mol
TETRTFDSEEEAKKATKEAEKQGRTVTITRRDDRWEVRFD	2.27 kcal/mol
TETRTFDSEEEAKKAVKEAEKQGRTVTITRRDDRWEVRFD	3.18 kcal/mol
TETRTFDSEEEAKKAWKEAEKQGRTVTITRRDDRWEVRFD	2.53 kcal/mol
TETRTFDSEEEAKKAYKEAEKQGRTVTITRRDDRWEVRFD	2.83 kcal/mol
TETRTFDSEEEAKKAQAEAEKQGRTVTITRRDDRWEVRFD	3.25 kcal/mol
TETRTFDSEEEAKKAQDEAEKQGRTVTITRRDDRWEVRFD	2.92 kcal/mol
TETRTFDSEEEAKKAQEEAEKQGRTVTITRRDDRWEVRFD	3.17 kcal/mol
TETRTFDSEEEAKKAQFEAEKQGRTVTITRRDDRWEVRFD	3.13 kcal/mol
TETRTFDSEEEAKKAQGEAEKQGRTVTITRRDDRWEVRFD	2.67 kcal/mol
TETRTFDSEEEAKKAQHEAEKQGRTVTITRRDDRWEVRFD	2.98 kcal/mol
TETRTFDSEEEAKKAQIEAEKQGRTVTITRRDDRWEVRFD	3.22 kcal/mol
TETRTFDSEEEAKKAQLEAEKQGRTVTITRRDDRWEVRFD	3.25 kcal/mol
TETRTFDSEEEAKKAQMEAEKQGRTVTITRRDDRWEVRFD	3.21 kcal/mol
TETRTFDSEEEAKKAQNEAEKQGRTVTITRRDDRWEVRFD	2.82 kcal/mol

Variant	folding stability dG
TETRTFDSEEEAKKAQPEAEKQGRTVTITRRDDRWEVRFD	0.527 kcal/mol
TETRTFDSEEEAKKAQQEAEKQGRTVTITRRDDRWEVRFD	3.08 kcal/mol
TETRTFDSEEEAKKAQREAEKQGRTVTITRRDDRWEVRFD	3.13 kcal/mol
TETRTFDSEEEAKKAQSEAEKQGRTVTITRRDDRWEVRFD	3.02 kcal/mol
TETRTFDSEEEAKKAQTEAEKQGRTVTITRRDDRWEVRFD	2.91 kcal/mol
TETRTFDSEEEAKKAQVEAEKQGRTVTITRRDDRWEVRFD	3.15 kcal/mol
TETRTFDSEEEAKKAQWEAEKQGRTVTITRRDDRWEVRFD	3.18 kcal/mol
TETRTFDSEEEAKKAQYEAEKQGRTVTITRRDDRWEVRFD	3.23 kcal/mol
TETRTFDSEEEAKKAQKAAEKQGRTVTITRRDDRWEVRFD	2.79 kcal/mol
TETRTFDSEEEAKKAQKCAEKQGRTVTITRRDDRWEVRFD	3 kcal/mol
TETRTFDSEEEAKKAQKDAEKQGRTVTITRRDDRWEVRFD	2.87 kcal/mol
TETRTFDSEEEAKKAQKFAEKQGRTVTITRRDDRWEVRFD	2.32 kcal/mol
TETRTFDSEEEAKKAQKGAEKQGRTVTITRRDDRWEVRFD	1.75 kcal/mol
TETRTFDSEEEAKKAQKHAEKQGRTVTITRRDDRWEVRFD	2.55 kcal/mol
TETRTFDSEEEAKKAQKIAEKQGRTVTITRRDDRWEVRFD	2.74 kcal/mol
TETRTFDSEEEAKKAQKKAEKQGRTVTITRRDDRWEVRFD	2.36 kcal/mol
TETRTFDSEEEAKKAQKLAEKQGRTVTITRRDDRWEVRFD	2.79 kcal/mol
TETRTFDSEEEAKKAQKMAEKQGRTVTITRRDDRWEVRFD	2.81 kcal/mol
TETRTFDSEEEAKKAQKNAEKQGRTVTITRRDDRWEVRFD	2.46 kcal/mol
TETRTFDSEEEAKKAQKPAEKQGRTVTITRRDDRWEVRFD	0.538 kcal/mol
TETRTFDSEEEAKKAQKQAEKQGRTVTITRRDDRWEVRFD	2.65 kcal/mol
TETRTFDSEEEAKKAQKRAEKQGRTVTITRRDDRWEVRFD	2.46 kcal/mol
TETRTFDSEEEAKKAQKSAEKQGRTVTITRRDDRWEVRFD	2.38 kcal/mol
TETRTFDSEEEAKKAQKTAEKQGRTVTITRRDDRWEVRFD	2.42 kcal/mol
TETRTFDSEEEAKKAQKVAEKQGRTVTITRRDDRWEVRFD	2.58 kcal/mol

Variant	folding stability dG
TETRTFDSEEEAKKAQKWAEKQGRTVTITRRDDRWEVRFD	2.63 kcal/mol
TETRTFDSEEEAKKAQKYAEKQGRTVTITRRDDRWEVRFD	2.31 kcal/mol
TETRTFDSEEEAKKAQKEDEKQGRTVTITRRDDRWEVRFD	1.41 kcal/mol
TETRTFDSEEEAKKAQKEEEKQGRTVTITRRDDRWEVRFD	2.28 kcal/mol
TETRTFDSEEEAKKAQKEFEKQGRTVTITRRDDRWEVRFD	3.12 kcal/mol
TETRTFDSEEEAKKAQKEGEKQGRTVTITRRDDRWEVRFD	2.75 kcal/mol
TETRTFDSEEEAKKAQKEHEKQGRTVTITRRDDRWEVRFD	2.19 kcal/mol
TETRTFDSEEEAKKAQKEIEKQGRTVTITRRDDRWEVRFD	2.47 kcal/mol
TETRTFDSEEEAKKAQKEKEKQGRTVTITRRDDRWEVRFD	1.33 kcal/mol
TETRTFDSEEEAKKAQKELEKQGRTVTITRRDDRWEVRFD	3.39 kcal/mol
TETRTFDSEEEAKKAQKEMEKQGRTVTITRRDDRWEVRFD	3.04 kcal/mol
TETRTFDSEEEAKKAQKENEKQGRTVTITRRDDRWEVRFD	1.72 kcal/mol
TETRTFDSEEEAKKAQKEPEKQGRTVTITRRDDRWEVRFD	0.448 kcal/mol
TETRTFDSEEEAKKAQKEQEKQGRTVTITRRDDRWEVRFD	2.13 kcal/mol
TETRTFDSEEEAKKAQKEREKQGRTVTITRRDDRWEVRFD	1.21 kcal/mol
TETRTFDSEEEAKKAQKESEKQGRTVTITRRDDRWEVRFD	1.97 kcal/mol
TETRTFDSEEEAKKAQKETEKQGRTVTITRRDDRWEVRFD	1.27 kcal/mol
TETRTFDSEEEAKKAQKEVEKQGRTVTITRRDDRWEVRFD	1.78 kcal/mol
TETRTFDSEEEAKKAQKEWEKQGRTVTITRRDDRWEVRFD	3.05 kcal/mol
TETRTFDSEEEAKKAQKEYEKQGRTVTITRRDDRWEVRFD	3.25 kcal/mol
TETRTFDSEEEAKKAQKEAAKQGRTVTITRRDDRWEVRFD	2.88 kcal/mol
TETRTFDSEEEAKKAQKEACKQGRTVTITRRDDRWEVRFD	2.81 kcal/mol
TETRTFDSEEEAKKAQKEADKQGRTVTITRRDDRWEVRFD	2 kcal/mol
TETRTFDSEEEAKKAQKEAFKQGRTVTITRRDDRWEVRFD	2.77 kcal/mol
TETRTFDSEEEAKKAQKEAGKQGRTVTITRRDDRWEVRFD	2.13 kcal/mol
